T1: Pellino 2 FHA (PELI2 residues 15-275) (human, UniProt Q9HAT8 15-275)
T1 construct: Cloned into pGEX-6P1; also called PELI2 (15–273); N-terminal PELI2 fragment; source: E. coli BL21 (DE3), purified (Glutathione Sepharose, 3C cleavage, gel filtration); not shown: GST, N-terminal, cleaved
T1 sequence (looked up): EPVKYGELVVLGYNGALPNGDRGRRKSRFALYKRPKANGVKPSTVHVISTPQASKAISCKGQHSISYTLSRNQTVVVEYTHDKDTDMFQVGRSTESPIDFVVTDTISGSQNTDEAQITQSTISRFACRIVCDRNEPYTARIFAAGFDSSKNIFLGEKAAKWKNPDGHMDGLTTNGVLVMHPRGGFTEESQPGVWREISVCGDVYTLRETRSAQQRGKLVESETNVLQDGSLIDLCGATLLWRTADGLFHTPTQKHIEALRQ

T2: Pellino 1 FHA (PELI1 residues 13-273) (human, UniProt Q96FA3 13-273)
T2 construct: Cloned into pGEX-6P1; same preparation for ITC and crystallography by the methods; also called PELI1 (13–273); N-terminal PELI1 fragment; source: E. coli BL21 (DE3), purified (Glutathione Sepharose, 3C cleavage, gel filtration); not shown: GST, N-terminal, cleaved
T2 sequence (looked up): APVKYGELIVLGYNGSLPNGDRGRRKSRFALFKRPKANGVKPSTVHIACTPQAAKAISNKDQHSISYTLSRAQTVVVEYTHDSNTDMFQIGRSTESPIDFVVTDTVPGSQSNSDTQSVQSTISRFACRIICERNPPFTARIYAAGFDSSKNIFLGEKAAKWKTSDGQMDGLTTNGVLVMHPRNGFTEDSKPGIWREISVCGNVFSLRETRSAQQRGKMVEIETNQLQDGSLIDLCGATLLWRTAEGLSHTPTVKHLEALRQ

B1: H2AX-pS139 phosphopeptide for ITC (GGKATQApSQEY) (peptide)
chain: Ac-GGKATQA[pS]QEY-NH2
SMILES: CC(=O)NCC(=O)NCC(=O)N[C@@H](CCCCN)C(=O)N[C@@H](C)C(=O)N[C@H](C(=O)N[C@@H](CCC(N)=O)C(=O)N[C@@H](C)C(=O)N[C@@H](COP(=O)(O)O)C(=O)N[C@@H](CCC(N)=O)C(=O)N[C@@H](CCC(=O)O)C(=O)N[C@@H](Cc1ccc(O)cc1)C(N)=O)[C@@H](C)O
B2: IRAK1-pT141(+3Y) phosphopeptide (AYSSASpTFLYP) (peptide)
peptide: Ac-AYSSAS[pT]FLYP-NH2
SMILES: CC(=O)N[C@@H](C)C(=O)N[C@@H](Cc1ccc(O)cc1)C(=O)N[C@@H](CO)C(=O)N[C@@H](CO)C(=O)N[C@@H](C)C(=O)N[C@@H](CO)C(=O)N[C@H](C(=O)N[C@@H](Cc1ccccc1)C(=O)N[C@@H](CC(C)C)C(=O)N[C@@H](Cc1ccc(O)cc1)C(=O)N1CCC[C@H]1C(N)=O)[C@@H](C)OP(=O)(O)O
notes: two N-terminal residues as in the other ITC peptides; IRAK1, stretch around T141 with tyrosine at pT+3; also called IRAK-pT141(+3Y); source: synthetic peptide
B3: MDC1-pT719 phosphopeptide for ITC (AYEDEPpTQAFA) (peptide)
chain: Ac-AYEDEP[pT]QAFA-NH2
SMILES: CC(=O)N[C@@H](C)C(=O)N[C@@H](Cc1ccc(O)cc1)C(=O)N[C@@H](CCC(=O)O)C(=O)N[C@@H](CC(=O)O)C(=O)N[C@@H](CCC(=O)O)C(=O)N1CCC[C@H]1C(=O)N[C@H](C(=O)N[C@@H](CCC(N)=O)C(=O)N[C@@H](C)C(=O)N[C@@H](Cc1ccccc1)C(=O)N[C@@H](C)C(N)=O)[C@@H](C)OP(=O)(O)O
B4: MDC1-pT699 phosphopeptide for ITC (AYDLQApTQCFA) (peptide)
peptide: Ac-AYDLQA[pT]QCFA-NH2
SMILES: CC(=O)N[C@@H](C)C(=O)N[C@@H](Cc1ccc(O)cc1)C(=O)N[C@@H](CC(=O)O)C(=O)N[C@@H](CC(C)C)C(=O)N[C@@H](CCC(N)=O)C(=O)N[C@@H](C)C(=O)N[C@H](C(=O)N[C@@H](CCC(N)=O)C(=O)N[C@@H](CS)C(=O)N[C@@H](Cc1ccccc1)C(=O)N[C@@H](C)C(N)=O)[C@@H](C)OP(=O)(O)O
notes: human MDC1, stretch around T699 with alanine at pT+4; source: synthetic peptide
B5: MDC1-pT765 phosphopeptide for ITC and crystallisation (AYEDSEpTQPFD) (peptide)
peptide: Ac-AYEDSE[pT]QPFD-NH2
SMILES: CC(=O)N[C@@H](C)C(=O)N[C@@H](Cc1ccc(O)cc1)C(=O)N[C@@H](CCC(=O)O)C(=O)N[C@@H](CC(=O)O)C(=O)N[C@@H](CO)C(=O)N[C@@H](CCC(=O)O)C(=O)N[C@H](C(=O)N[C@@H](CCC(N)=O)C(=O)N1CCC[C@H]1C(=O)N[C@@H](Cc1ccccc1)C(=O)N[C@@H](CC(=O)O)C(N)=O)[C@@H](C)OP(=O)(O)O
notes: two N-terminal residues that are not the MDC1 residues at this place; human MDC1, stretch around T765; Natural stretch with two added N-terminal residues (AY); The crystallisation methods name only 'the MDC1-pT765 phosphopeptide'; also called MDC1-pT765 (Site 4) phosphopeptide; MDC1 p765 peptide; source: synthetic peptide
B6: MDC1-pT752 phosphopeptide for ITC (AYEVLApTQPFC) (peptide)
peptide: Ac-AYEVLA[pT]QPFC-NH2
SMILES: CC(=O)N[C@@H](C)C(=O)N[C@@H](Cc1ccc(O)cc1)C(=O)N[C@@H](CCC(=O)O)C(=O)N[C@H](C(=O)N[C@@H](CC(C)C)C(=O)N[C@@H](C)C(=O)N[C@H](C(=O)N[C@@H](CCC(N)=O)C(=O)N1CCC[C@H]1C(=O)N[C@@H](Cc1ccccc1)C(=O)N[C@@H](CS)C(N)=O)[C@@H](C)OP(=O)(O)O)C(C)C
notes: two N-terminal residues that are not the MDC1 residues at this place; human MDC1, stretch around T752; Natural stretch with two added N-terminal residues (AY); source: synthetic peptide

Square brackets hold non-standard residues; d marks the D form. pT = C[C@@H](OP(=O)(O)O)[C@H](N)C(=O)O; pS = N[C@@H](COP(=O)(O)O)C(=O)O

One test concerns the target T3, MDC1 BRCT-repeat fragment (human).
T3 construct: MDC1, BRCT-repeat fragment; source: purified
As to the kind of experiment: ITC; peptide in the syringe (typically 160 μM), protein in the cell (16 μM); 25 mM HEPES pH 7.0, 200 mM NaCl, 1 mM TCEP; single-site binding model. The note with it: both partners purified.
In the case of B1, binding was put at a Kd of 0.85 µM, the dH is -13.9 kcal/mol and the “stoichiometry N” value turned out to be 0.6.

A further test addresses T1, Pellino 2 FHA (PELI2 residues 15-275). The test is described as above. To be noted: both partners purified.
B2: the dissociation constant (Kd) worked out at 0.7 µM, the dH is -25.8 kcal/mol and the “stoichiometry N” value is 0.59.
Take B3: the Kd was determined as 1.22 µM, the dH is -34.7 kcal/mol and the “stoichiometry N” value amounted to 0.52.
Regarding B4, the Kd stood at 1.12 µM, the dH was -19.9 kcal/mol and the “stoichiometry N” value came out at 0.55.
Take B5: the Kd was 0.37 µM, the dH was -32.7 kcal/mol and the “stoichiometry N” value turned out to be 0.69.
The like results for B6 were, in that order, 1.06 µM, -28.2 kcal/mol and 0.69.

The target of the next test is T2, Pellino 1 FHA (PELI1 residues 13-273). The description is as above. To be noted: both partners purified.
For B2, the affinity, expressed as Kd, was 0.42 µM; the dH is -17.4 kcal/mol; the “stoichiometry N” value was 0.7.
On to B3, for which the Kd worked out at 1.14 µM, the dH is -21.8 kcal/mol and the “stoichiometry N” value came to 0.78.
For B4, the affinity, expressed as Kd, was 2.01 µM; the dH is -18.5 kcal/mol; the “stoichiometry N” value turned out to be 0.36.
As to B5, binding was put at a Kd of 0.23 µM, the dH is -22 kcal/mol and the “stoichiometry N” value was determined as 0.62.
With B6, the affinity, expressed as Kd, was 1.14 µM; the dH is -18.5 kcal/mol; the “stoichiometry N” value turned out to be 0.74.

The values are drawn from PMC11884936, “MDC1 mediates Pellino recruitment to sites of DNA double-strand breaks” (Life Science Alliance, 2025).
